Values of other authors, collected in patent US6663886B2, “Inhibition of cell-cell binding by lipid assemblies” (Regents of the University of California, priority 1997, dated 2003).

Target: T1, P-selectin (Homo sapiens, UniProt P16109)
T1 sequence (P16109 42-830): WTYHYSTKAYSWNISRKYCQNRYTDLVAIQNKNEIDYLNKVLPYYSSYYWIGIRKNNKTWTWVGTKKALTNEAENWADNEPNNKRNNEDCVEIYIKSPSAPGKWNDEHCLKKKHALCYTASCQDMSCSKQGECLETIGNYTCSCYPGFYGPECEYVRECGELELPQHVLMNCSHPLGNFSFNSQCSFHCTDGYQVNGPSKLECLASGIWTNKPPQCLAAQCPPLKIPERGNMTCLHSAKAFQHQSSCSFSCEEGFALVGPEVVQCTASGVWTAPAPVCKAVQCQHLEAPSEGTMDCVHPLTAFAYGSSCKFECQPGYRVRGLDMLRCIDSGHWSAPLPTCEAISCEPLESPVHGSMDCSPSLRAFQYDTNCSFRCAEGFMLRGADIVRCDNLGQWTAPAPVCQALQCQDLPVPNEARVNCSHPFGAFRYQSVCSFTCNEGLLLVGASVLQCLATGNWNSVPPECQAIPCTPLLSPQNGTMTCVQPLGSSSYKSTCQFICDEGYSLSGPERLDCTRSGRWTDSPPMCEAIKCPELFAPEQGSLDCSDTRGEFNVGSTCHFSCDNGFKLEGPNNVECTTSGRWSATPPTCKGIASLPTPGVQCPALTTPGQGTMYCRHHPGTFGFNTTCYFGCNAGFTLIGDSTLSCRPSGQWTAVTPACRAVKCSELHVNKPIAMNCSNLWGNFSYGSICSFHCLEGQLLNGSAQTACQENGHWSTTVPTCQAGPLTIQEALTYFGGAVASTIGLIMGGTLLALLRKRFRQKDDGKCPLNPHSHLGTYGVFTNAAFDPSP
Conditions: literature (Nelson et al. 1993; Moore et al. 1991)

B1: natural ligand: natural ligand of P-selectin, P-selectin glycoprotein ligand 1 (protein, UniProt Q14242 42-412, looked up)
P-selectin glycoprotein …: QATEYEYLDYDFLPETEPPEMLRNSTDTTPLTGPGTPESTTVEPAARRSTGLDAGGAVTELTTELANMGNLSTDSAAMEIQTTQPAATEAQTTQPVPTEAQTTPLAATEAQTTRLTATEAQTTPLAATEAQTTPPAATEAQTTQPTGLEAQTTAPAAMEAQTTAPAAMEAQTTPPAAMEAQTTQTTAMEAQTTAPEATEAQTTQPTATEAQTTPLAAMEALSTEPSATEALSMEPTTKRGLFIPFSVSSVTHKGIPMAASNLSVNYPVGAPDHISVKQCLLAILILALVATIFFVCTVVLAVRLSRKGHMYPVRNYSPTEMVCISSLLPDGGEGPSATANGGLSKAKSPGLTPEPREDREGDDLTLHSFLP
- binding affinity of P-selectin: in the nM range
